Reference: patent US20050037339A1 (published 2005)

Assays:
BoNT-A C-fragment [1] = target: T1, BoNT-A C-fragment (UniProt P0DPI0 871-1296); test: SPR (BIAcore), purified scFv
BoNT-A C-fragment [2] = target: T1, BoNT-A C-fragment; test: SPR (BIAcore), purified scFv; Kd calculated as koff/kon

T1 sequence (P0DPI0 871-1296): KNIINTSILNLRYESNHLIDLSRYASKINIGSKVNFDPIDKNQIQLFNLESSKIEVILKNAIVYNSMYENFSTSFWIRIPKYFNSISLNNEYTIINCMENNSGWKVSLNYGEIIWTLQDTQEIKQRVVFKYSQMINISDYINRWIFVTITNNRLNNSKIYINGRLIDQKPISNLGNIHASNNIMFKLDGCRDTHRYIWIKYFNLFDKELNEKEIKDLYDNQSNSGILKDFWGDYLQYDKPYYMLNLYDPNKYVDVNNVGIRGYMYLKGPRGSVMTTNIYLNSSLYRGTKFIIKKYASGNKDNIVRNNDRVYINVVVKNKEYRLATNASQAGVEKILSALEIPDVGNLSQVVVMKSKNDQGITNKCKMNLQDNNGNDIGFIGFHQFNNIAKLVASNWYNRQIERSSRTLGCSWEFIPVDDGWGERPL

B1: anti-BoNT-A scFv 2B6 (scFv)
chain: VKLVESGPGLVKPSQSLSLTCTVTGYSITSDYAWNWIRQFPGNKLEWMGYINYDGSNNYNPSLKNRISITRDTSKNQFFLKLNSVTSEDTATYYCARAGDGYYVDWYFDVWGTGTTVIVSSGGGGSGGGGSGGGGSYIELTQSPASLAVSLGQRATTSCRASESVDSYGNSFMHWYQQKPGQPPKLLIYLASNLESGVPARFSGSGSRTDFTLTIDPVEADDAATYYCQQNNEDPYTFGGGTKLEIKS
Question: What does the source list for B1?
Answer: koff (BoNT-A C-fragment [1]): 0.0078 s⁻¹; kon (BoNT-A C-fragment [1]): 110000 M⁻¹ s⁻¹; Kd (BoNT-A C-fragment [2]): 71.5 nM
